Reference: patent US20090136940

Biological target: T1, NF-kB p50 (NFKB1) (Homo sapiens) (UniProt P19838)
T1 sequence: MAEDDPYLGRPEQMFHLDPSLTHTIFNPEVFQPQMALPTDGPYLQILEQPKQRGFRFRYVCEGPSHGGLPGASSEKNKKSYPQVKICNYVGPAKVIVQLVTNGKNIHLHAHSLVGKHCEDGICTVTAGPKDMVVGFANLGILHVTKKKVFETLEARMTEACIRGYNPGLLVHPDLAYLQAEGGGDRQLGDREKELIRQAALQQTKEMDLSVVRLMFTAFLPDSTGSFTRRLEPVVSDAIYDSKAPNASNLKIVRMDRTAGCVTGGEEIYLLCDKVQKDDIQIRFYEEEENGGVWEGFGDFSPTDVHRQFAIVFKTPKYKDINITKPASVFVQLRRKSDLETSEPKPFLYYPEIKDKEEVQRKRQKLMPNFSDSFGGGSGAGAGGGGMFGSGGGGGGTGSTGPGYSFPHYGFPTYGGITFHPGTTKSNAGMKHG
Experiment: EMSA
Details: saturating p50 monomer (200 nM)

Sequence	binding signal (% fluorescence co-migrating with p50) (internucleoside phosphotriester triethylene glycol amino linker after T8 of SEQ 1)	binding signal (% fluorescence co-migrating with p50) (internucleoside phosphotriester triethylene glycol amino linker after T12 of SEQ 2, truncated site)
CGGAAAGTCCCTCATAGCT (double strand) [I (ODN2)/Cy5.5-XIX (ODN3)]	94	–
TGGAAAGCTTTTTACAGTT (double strand) [ODN4/Cy5.5-ODN5]	–	63
